Laboratory results: US20210277138A1 (BLACK BELT THERAPEUTICS, published 2021)

B1: aCD38-b-329 (antibody, human IgG1, V domains shown)
VH: QLQLQESGPGLVKPSETLSLTCTVSGGSISSSDYYWGWIRQPPGKGLEWIGSIYYSGSTYYNPSLKSRVTISVDTSKNQFSLKLSSVTAADTAVYYCARGQYSSGWYAYPFDMWGQGTMVTVSS
VL: EIVLTQSPGTLSLSPGERATLSCRASQSVRSSYLAWYQQKPGQAPRLLIYGASSRATGIPDRFSGSGSGTDFTLTISRLEPEDFAVYYCQQDGAVFTFGGGTKVEIK
B2: aCD38-b-329-m7 (antibody, IgG1, V domains shown)
VH: QLQLQESGPGLVKPSETLSLTCTVSGGSISSSDYYWGWIRQPPGKGLEWIGSIYYSGSTYYNPSLKSRVTISVDTSKNQFSLKLSSVTAADTAVYYCARGQYSSGWYAYPFDMWGQGTMVTVSS
VL: EIVLTQSPGTLSLSPGERATLSCRASQSVRSSYLAWYQQKPGQAPRLLIYGASSRATGIPDRFSGSGSGTDFTLTISRLEPEDFAVYYCQQDSAVFTFGGGTKVEIK
B3: aCD38-b-329-m6 (antibody, IgG1, V domains shown)
VH: QLQLQESGPGLVKPSETLSLTCTVSGGSISSSDYYWGWIRQPPGKGLEWIGSIYYSGSTYYNPSLKSRVTISVDTSKNQFSLKLSSVTAADTAVYYCARGQYSSGWYAYPFDMWGQGTMVTVSS
VL: EIVLTQSPGTLSLSPGERATLSCRASQSVRSSYLAWYQQKPGQAPRLLIYGASSRATGIPDRFSGSGSGTDFTLTISRLEPEDFAVYYCQQDEAVFTFGGGTKVEIK

Legend:
[1] = target: T1, human CD38 expressed on cells (Daudi cells, human PBMC / T cells) (human, UniProt P28907 1-300); test: flow cytometry on human PBMC, gated on CD8-positive cells, fluorescent secondary antibody [upper panel (gated on CD8-positive cells]
T1 construct: Endogenous CD38 on Daudi cells and on CD4+/CD8+ human PBMC; also called CD38 expressed in PBMCs; CD38 expression human cell line (Daudi)
T1 sequence: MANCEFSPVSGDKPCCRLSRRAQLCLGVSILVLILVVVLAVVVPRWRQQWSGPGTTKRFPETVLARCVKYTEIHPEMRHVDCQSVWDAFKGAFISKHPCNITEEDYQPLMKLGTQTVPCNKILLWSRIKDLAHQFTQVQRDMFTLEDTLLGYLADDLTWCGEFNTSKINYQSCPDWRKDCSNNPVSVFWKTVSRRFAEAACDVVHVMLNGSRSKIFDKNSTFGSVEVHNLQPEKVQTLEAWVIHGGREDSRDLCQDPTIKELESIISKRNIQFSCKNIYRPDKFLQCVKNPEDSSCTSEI

[2] = target: T1, human CD38 expressed on cells (Daudi …); test: flow cytometry on human PBMC, gated on CD4-positive cells, fluorescent secondary antibody [lower panel (gated on CD4-positive cells]
[3] = target: T1, human CD38 expressed on cells (Daudi …); test: cell-based or functional assay
[4] = target: T1, human CD38 expressed on cells (Daudi …); test: cell-based or functional assay; remark: listed apart in the source

Binder	EC50 (read off the curve) [1] [nM]	EC50 (read off the curve) [2] [nM]	ADCC target lysis EC50 [3] [ng/mL]	ADCC target lysis Max. % lysis [3] [%]	ADCC EC50 ug/ml, target Daudi cells, experiment 1 [4] [µg/mL]	ADCC EC50 ug/ml, target Daudi cells, experiment 2 [4] [µg/mL]
B1	~0.07	~0.07	6.2	49	0.011	0.0062
B2	–	–	3.5	43	–	–
B3	–	–	2.4	47	–	–
